Results on 2 molecules are retold here after publication PMC3176292.

Test [1] has as its target T1, Flag-Smad4, full length, Q13485.
T1 chain: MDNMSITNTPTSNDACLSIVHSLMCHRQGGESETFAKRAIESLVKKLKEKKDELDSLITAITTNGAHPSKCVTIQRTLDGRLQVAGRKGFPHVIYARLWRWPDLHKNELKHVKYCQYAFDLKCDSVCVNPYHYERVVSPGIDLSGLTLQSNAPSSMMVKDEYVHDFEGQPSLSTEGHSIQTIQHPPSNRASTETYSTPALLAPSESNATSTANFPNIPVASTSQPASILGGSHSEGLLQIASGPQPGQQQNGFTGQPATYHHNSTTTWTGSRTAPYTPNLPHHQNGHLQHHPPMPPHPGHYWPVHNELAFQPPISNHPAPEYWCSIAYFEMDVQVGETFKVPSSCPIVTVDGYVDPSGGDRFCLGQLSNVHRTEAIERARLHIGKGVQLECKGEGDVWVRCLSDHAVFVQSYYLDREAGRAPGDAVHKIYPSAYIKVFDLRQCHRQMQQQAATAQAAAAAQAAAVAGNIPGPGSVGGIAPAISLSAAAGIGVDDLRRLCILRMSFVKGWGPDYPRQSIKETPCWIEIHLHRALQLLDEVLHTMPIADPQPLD
Put plainly: co-IP; LUMIER: Renilla luciferase-Smad3 and Flag-tagged partner co-expressed with constitutively active Alk5 in HEK-293; Flag protein captured from cleared lysate (TNE: 10 mM Tris-HCl pH 7.8, 150 mM NaCl, 1 mM EDTA, 1% Igepal CA-630) on anti-Flag 96-well plates, 2 h at 4 °C; co-precipitated Renilla luciferase activity, TrxGA background subtracted, percent of wild-type Smad3. The following applies: remark: other sources report otherwise.

For test [2] the target is unchanged. Put plainly: co-IP; LUMIER as a1 but without co-expression of the activated Alk5 kinase (Smad3 not phosphorylated); percent of phosphorylated wild-type Smad3. Particulars: remark: other sources report otherwise.

B1: Renilla luciferase-Smad3 wild type, co-expressed with constitutively active Alk5 (phosphorylated Smad3), P84022 1-425 (natural protein)
chain: MSSILPFTPPIVKRLLGWKKGEQNGQEEKWCEKAVKSLVKKLKKTGQLDELEKAITTQNVNTKCITIPRSLDGRLQVSHRKGLPHVIYCRLWRWPDLHSHHELRAMELCEFAFNMKKDEVCVNPYHYQRVETPVLPPVLVPRHTEIPAEFPPLDDYSHSIPENTNFPAGIEPQSNIPETPPPGYLSEDGETSDHQMNHSMDAGSPNLSPNPMSPAHNNLDLQPVTYCEPAFWCSISYYELNQRVGETFHASQPSMTVDGFTDPSNSERFCLGLLSNVNRNAAVELTRRHIGRGVRLYYIGGEVFAECLSDSAIFVQSPNCNQRYGWHPATVCKIPPGCNLKIFNNQEFAALLAQSVNQGFEAVYQLTRMCTIRMSFVKGWGAEYRRQTVTSTPCWIELHLNGPLQWLDKVLTQMGSPSIRCSSVS
modifications: here or on the partner: phosphorylated by the co-expressed activated Alk5 kinase (sites not given)
B1 yielded a percent binding relative to wild-type Smad3 in test [1] of 100%.

B2: Renilla luciferase-Smad3 wild type, without Alk5 (not phosphorylated), P84022 1-425 (natural protein)
chain: MSSILPFTPPIVKRLLGWKKGEQNGQEEKWCEKAVKSLVKKLKKTGQLDELEKAITTQNVNTKCITIPRSLDGRLQVSHRKGLPHVIYCRLWRWPDLHSHHELRAMELCEFAFNMKKDEVCVNPYHYQRVETPVLPPVLVPRHTEIPAEFPPLDDYSHSIPENTNFPAGIEPQSNIPETPPPGYLSEDGETSDHQMNHSMDAGSPNLSPNPMSPAHNNLDLQPVTYCEPAFWCSISYYELNQRVGETFHASQPSMTVDGFTDPSNSERFCLGLLSNVNRNAAVELTRRHIGRGVRLYYIGGEVFAECLSDSAIFVQSPNCNQRYGWHPATVCKIPPGCNLKIFNNQEFAALLAQSVNQGFEAVYQLTRMCTIRMSFVKGWGAEYRRQTVTSTPCWIELHLNGPLQWLDKVLTQMGSPSIRCSSVS
Consider B2, for which the percent binding relative to wild-type Smad3 in test [2] was 6%.
